Reference: publication PMC9400903, “A Versatile Synthetic Affinity Probe Reveals Inhibitory Synapse Ultrastructure and Brain Connectivity**” (Angewandte Chemie (International Ed. in English), 2022)
Where no end group is shown, it is not given here.

B1: SyliteM (peptide)
chain: FSIVGSYPRRRRRRRRR
modifications: also: fluorophore
B2: Sylite (peptide)
chain 1: YSIVGSYPRKC(maleimide‑Cy5)
chain 2: YSIVGSYPR
modifications: also: two chains joined via linker, linkage not given here

Tests used:
[1] = target: T1, eGFP-gephyrin (UniProt Q03555 1-768); experiment: immunostaining of cells or tissue; fixed COS-7 cells expressing eGFP-gephyrin or eGFP alone, stained with the fluorescent probes (50 nM Sylite); probe signal at eGFP-rich regions; settings: one partner purified
T1 construct: gephyrin; source: COS-7 cells, expressed, cells fixed; 'mammalian cells' for the test of SyliteCy3
T1 sequence (looked up): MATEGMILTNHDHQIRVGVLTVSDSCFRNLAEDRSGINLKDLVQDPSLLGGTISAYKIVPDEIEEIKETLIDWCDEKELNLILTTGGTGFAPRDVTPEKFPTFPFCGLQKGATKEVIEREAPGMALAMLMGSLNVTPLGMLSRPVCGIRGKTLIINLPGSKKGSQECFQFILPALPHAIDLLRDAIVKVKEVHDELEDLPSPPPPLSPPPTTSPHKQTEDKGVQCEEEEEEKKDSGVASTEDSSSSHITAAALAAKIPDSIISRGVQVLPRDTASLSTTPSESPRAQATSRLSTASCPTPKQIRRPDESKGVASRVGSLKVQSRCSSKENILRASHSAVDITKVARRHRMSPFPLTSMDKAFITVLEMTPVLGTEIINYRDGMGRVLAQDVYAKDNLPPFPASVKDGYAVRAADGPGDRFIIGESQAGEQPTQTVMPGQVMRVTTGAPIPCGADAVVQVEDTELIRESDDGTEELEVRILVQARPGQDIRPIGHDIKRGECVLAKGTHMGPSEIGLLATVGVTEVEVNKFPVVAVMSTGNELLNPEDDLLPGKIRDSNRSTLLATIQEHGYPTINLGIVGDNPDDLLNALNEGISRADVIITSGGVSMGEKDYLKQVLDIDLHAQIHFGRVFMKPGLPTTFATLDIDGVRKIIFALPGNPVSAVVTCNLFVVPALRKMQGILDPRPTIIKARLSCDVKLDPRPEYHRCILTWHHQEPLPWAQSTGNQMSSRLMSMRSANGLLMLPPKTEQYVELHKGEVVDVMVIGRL

[2] = target: B2; experiment: ITC; Sylite or SyliteM titrated with purified gephyrin E domain; N=3; settings: both partners purified
[3] = target: B1; experiment: as above; settings: both partners purified

| Binder | signal-to-background ratio (SBR) [1] | Kd [2] [nM] | stoichiometry N [2] | Kd [3] [nM] |
| --- | --- | --- | --- | --- |
| B1 | 36 | – | – | – |
| gephyrin E domain (domain or fragment) SSKENILRASHSAVDITKVARRHRMSPFPLTSMDKAFITVLEMTPVLGTEIINYRDGMGRVLAQDVYAKDNLPPFPASVKDGYAVRAADGPGDRFIIGESQAGEQPTQTVMPGQVMRVTTGAPIPCGADAVVQVEDTELIRESDDGTEELEVRILVQARPGQDIRPIGHDIKRGECVLAKGTHMGPSEIGLLATVGVTEVEVNKFPVVAVMSTGNELLNPEDDLLPGKIRDSNRSTLLATIQEHGYPTINLGIVGDNPDDLLNALNEGISRADVIITSGGVSMGEKDYLKQVLDIDLHAQIHFGRVFMKPGLPTTFATLDIDGVRKIIFALPGNPVSAVVTCNLFVVPALRKMQGILDPRPTIIKARLSCDVKLDPRPEYHRCILTWHHQEPLPWAQSTGNQMSSRLMSMRSANGLLMLPPKTEQYVELHKGEVVDVMVIGRL | – | 17.5 | 2 gephyrin E domain per probe | 205 |
| B2 | 492 | – | – | – |
